Measured values reported in the RNAGym collection of RNA variant scans (doi:10.7554/elife.80360).

B1: Hairpin Ribozyme (parent)
chain: GUCCUCUUUCACGUGCGCGUGAAAGAGAGAAGUGAACCAGAGAAACACACGUUGUGGUAUAUUACCUGGUA

Variants of: B1
Test: self-cleavage, relative activity (ratio to wild type); higher = more cleavage; co-transcriptional

Variant | self-cleavage
C38U G57A | 0.229
G1A U7G | 0.148
A23U A24U | 0.737
C4A U14A | 0.191
C6G U70C | 0.497
A22C G40U | 0.19
A31G G42C | 0.278
A30C C37G | 0.277
C3A A26U | 0.653
U5C A45U | 0.133
A11C U63C | 0.141
U62C G68A | 0.2
G27U C50G | 0.175
U5C C65G | 0.0463
A11G G27C | 0.198
A24U A64C | 0.142
C12A A31U | 0.104
U8C A64U | 0.104
C18G A47U | 0.0785
A26C A28C | 0.329
U70G | 0.844

Variant | self-cleavage
A24U C65U | 0.39
A43G U60G | 0.0362
C50U A64U | 0.0365
A36C C46G | 0.134
A23U A36G | 0.681
C4G U63A | 0.252
G34A U55G | 0.541
U14A C46G | 0.108
G1U A44G | 0.0639
C4A U70G | 0.154
C37U U58C | 0.743
A31G U60G | 0.412
A31G U60A | 0.677
G54U A61G | 0.139
C16U G42C | 0.346
U9C A49G | 0.21
G19C U67A | 0.323
G13C A44U | 0.137
A59G U63A | 0.262
U14C A44C | 0.241
A36U U60A | 0.487

Variant | self-cleavage
U2A U67C | 0.0778
U8G A22G | 0.676
U62G U67A | 0.25
A11C C65U | 0.431
G42C U70A | 0.222
U5C A39U | 0.228
G27U C65G | 0.188
A44U C46A | 0.116
C3G G42A | 0.0837
U9C U58G | 0.729
G27C G68A | 0.105
A22G G68A | 0.307
U7C G17U | 0.892
G27C G69C | 0.1
G42A A45G | 0.138
G29A A30G | 0.135
G34C A71U | 1.27
C50U G54U | 0.905
G17U A43G | 0.0761
G40U G42U | 0.116
G17A U67G | 0.243

Variant | self-cleavage
C46U U63G | 0.221
G13A G15A | 0.839
A43U U60A | 0.255
G1C A30C | 0.207
U33A A41G | 0.0913
A28C A44U | 0.046
U5G A49G | 0.109
G1U C66G | 0.117
A31C G34C | 0.127
U14C G54C | 0.397
G1A A59C | 0.22
G1C A22U | 0.103
A28C A41G | 0.352
C3A U60A | 0.515
A22C G57A | 0.119
G32A C46A | 0.145
A23G C50G | 0.153
C65U G68C | 0.108
A23C G56A | 0.187
A43U U53C | 0.111
